Results: the supplement of paper PMC10724198
± gives the standard deviation of the averaged measurements.

test system: Saccharomyces cerevisiae; assay: protein stability index of tFT-peptide fusion (C-terminal peptide) (PSI (0-1 scale)); higher = more stable (slower turnover); settings: genetic background: wild type; temperature: 30 C
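Note: PSI is a weighted mean of sequencing reads over stability bins, variants kept only with over 10 reads, mCherry proximal and sfGFP distal, peptide attached via GGGS linker.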

Sequence | protein stability index
KYDSPFFNWCSQ | 0.579 ± 0.031
SLIRSHKLKLFP | 0.732 ± 0.045
GRGEDLVRRHTP | 0.668 ± 0.032
TASLQGCANGQS | 0.674 ± 0.012
FPLFRSLLLFAP | 0.5331 ± 0.00081
TVLKCECEYFLH | 0.654 ± 0.019
RCRLGDFLLSFI | 0.63 ± 0.034
IHQVGCFHIPFG | 0.666 ± 0.0097
PPRPPPPPLRST | 0.758 ± 0.078
KTRNDQPQKFHN | 0.688 ± 0.034
PHLPSPRPRPPP | 0.722 ± 0.012
SFPASSLPHSLL | 0.716 ± 0.043
PPPPFLPVLLFP | 0.696 ± 0.08
VCRTLAPCIRWR | 0.633 ± 0.063
LYHCFRCYYMPW | 0.637 ± 0.033
SPRLPPPRPLPS | 0.676 ± 0.057
EEGGQGITIEES | 0.686 ± 0.12
SSPAPPPLLLPS | 0.7047 ± 0.00088
DYRKGDVETPFV | 0.677 ± 0.032
ADWTATTDPTST | 0.748 ± 0.019
ECTTTWLVPQHL | 0.655 ± 0.015
QGGGDREVRVSE | 0.653 ± 0.058
RRVGPVSPNWIS | 0.6499 ± 0.0042
ISPPAPTNLPTT | 0.696 ± 0.043
KRETKSKGQAQA | 0.602 ± 0.042
VTTDLALCGSVC | 0.624 ± 0.016

Sequence | protein stability index
LRAWWTPRRGRW | 0.769 ± 0.052
PSPPYSRPPLPP | 0.698 ± 0.049
AHGRFTISLAGL | 0.743 ± 0.057
SSSWILCRFGRS | 0.664 ± 0.041
RLGLQWGEFGTL | 0.72 ± 0.033
VRCGGRGRAGKG | 0.634 ± 0.03
PPPPPLPPPPSP | 0.656 ± 0.052
SVRLTYQNIIVN | 0.583 ± 0.02
YGVRGFKGYYGG | 0.735 ± 0.0087
VLGLALYTLSTS | 0.68 ± 0.041
RLGKRKKPYTQG | 0.756 ± 0.077
SSHPMNQVIKDR | 0.659 ± 0.13
PPPNSPPRPPLS | 0.7035 ± 0.0046
RHISRIYVERRY | 0.695 ± 0.02
SLDKCDKNNGGE | 0.733 ± 0.065
LNLRTFATFFRY | 0.635 ± 0.077
PPPLPSAPPTGT | 0.706 ± 0.026
PSSVPSTPTPPP | 0.657 ± 0.076
HPPLPPPLPGSP | 0.761 ± 0.049
PTTRSAPPPCIA | 0.676 ± 0.03
HIHRGDRVIGDV | 0.682 ± 0.01
GVRNGFMSVSLY | 0.651 ± 0.01
LPPPSPSPLFPP | 0.669 ± 0.052
PPVPPPAPPHPR | 0.753 ± 0.14
TRYGVRVPGRFR | 0.678 ± 0.018
EPYHYAWTQRSW | 0.698 ± 0.015

Sequence | protein stability index
KRLKKKRNRAKA | 0.683 ± 0.031
TSPLSPPLPSFR | 0.696 ± 0.021
RAPPRLHPPFPP | 0.676 ± 0.11
NRYKINHRIKCK | 0.576 ± 0.032
PPPYDPPRPLPR | 0.7209 ± 0.0027
VLFCQLFCDFFG | 0.631 ± 0.084
VACKGCVVACRV | 0.527 ± 0.045
CWPLITTNCTVP | 0.7081 ± 0.0054
VLCRVALWGVGG | 0.653 ± 0.02
PPVPSLFPPPPH | 0.674 ± 0.038
RRHHSVSPLPFL | 0.709 ± 0.0099
SLPPPSPLPPPV | 0.558 ± 0.018
VRIIVVDLGGRR | 0.684 ± 0.0082
AQPIPTLYRAPP | 0.729 ± 0.049
VGEGWGAMIMQE | 0.737 ± 0.038
KSKTRTKLYSRN | 0.6421 ± 0.0017
TPPLPRFHAPQP | 0.665 ± 0.017
VGVGPVGDVWLI | 0.6979 ± 0.0027
PSHPAPGPSTRQ | 0.673 ± 0.032
FLKGTTSQQDYT | 0.7022 ± 0.0056
NNRVVRGRKWGG | 0.682 ± 0.015
KQRKIKKNIINH | 0.707 ± 0.015
PPLFSSTNKNPR | 0.664 ± 0.0076
PQPLESTVDHRL | 0.7192 ± 0.0062
IQARAVRRSAII | 0.627 ± 0.0012
GFPPSPPPPSPL | 0.741 ± 0.085

Sequence | protein stability index
RPSLSPLHVPPS | 0.748 ± 0.047
LPPLAYALLPPL | 0.571 ± 0.028
RSCCSFRLEPYC | 0.671 ± 0.026
WCGDVLWLMSCG | 0.714 ± 0.016
GRVGLRGRPGPP | 0.716 ± 0.12
SQTRIKPREETA | 0.653 ± 0.031
GEGRGDKGHGWT | 0.706 ± 0.19
RIFSPVFLSMSV | 0.649 ± 0.018
PSPRISLSVFPC | 0.646 ± 0.062
LSRLPPTLPRTP | 0.699 ± 0.18
ATVKRAVPPVFR | 0.7 ± 0.041
RPPPPLSPPSLV | 0.73 ± 0.0084
ERRGGRKGRGRE | 0.662 ± 0.02
GRRPDEQRQTIG | 0.677 ± 0.0071
IDLVLCIGLGYQ | 0.62 ± 0.063
SSPSFPSPLPPY | 0.701 ± 0.074
LRTVSPPSASPP | 0.689 ± 0.014
FRLPAIRRGHDS | 0.69 ± 0.069
FSHLRASFADAA | 0.687 ± 0.045
PLPLPFGPPSLP | 0.753 ± 0.15
RPSHPPHLPPPV | 0.6753 ± 0.0044
GSSYRKNDRQEK | 0.723 ± 0.048
CRKIKFIQKINK | 0.623 ± 0.046
